Source: patent EP4635986A1 (National and Kapodistrian University of Athens, dated 2025)

What was measured:
PEc fragment aa 1-12 = molecular target: T1, PEc fragment aa 1-12 (human); experiment: dot blot on nitrocellulose
T1 peptide: YQPPSTNKNTKS

[1] = molecular target: T2, human Ec peptide (PEc), whole, 24 amino acids (human); experiment: dot blot, peptide on nitrocellulose, 2.5 µg/mL MAb
T2 construct: also called human PEc; whole PEc
T2 peptide: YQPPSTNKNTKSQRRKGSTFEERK

PEc fragment aa 13-24 = molecular target: T3, PEc fragment aa 13-24 (human); experiment: dot blot, peptide on nitrocellulose, 2.5 µg/mL MAb
T3 construct: also called the last 12 amino acids
T3 peptide: QRRKGSTFEERK

binding result (PEc fragment aa 1-12): no binding
binding result [1]: binds
binding result (PEc fragment aa 13-24): binds
B1: anti-PEc monoclonal antibody (MAb) of Example 1 (antibody, mouse IgG1, kappa, V domains shown)
VH: EVQLQQSGAELVRSGASVKLSCAASGFNLKDYYIHWVKQRPEQGLEWIGWIDPENGDTEYAPKFQGRATMTADTSSNTAYLHLSSLTSEDTAVYYCFANDVDCWGQGTTLTVSS
VL: DVVMTQPPLSLPVSLGDQASISCRSSQSLVHSNGKTYLHWYLQKPGQSPKLLIYKLSNRFSGVPDRFSGSGSGTDFTLKISRVEAEDLGVYFCFQSTHIPYTFGGGSKLEIRR
notes: Obtained from a mouse hybridoma, then expressed recombinantly in CHO cells; Called an IgG MAb; captured with anti-mouse Fc and detected with anti-mouse HRP; also called anti-PEc MAb; anti PEc MAb
